Measurements taken from patent US20240150433A1, “ERT2 MUTANTS AND USES THEREOF” (Senti Biosciences, Inc., priority 2021, published 2024).
Substitutions are numbered along the chain they refer to. Names may count otherwise.

B1: wild-type ERT2: ER-LBD with G400V/M543A/L544A/V595A (SEQ ID NO: 3), benchmark construct ZF10-1_p65_ERT2 wild-type (protein)
chain: SAGDMRAANLWPSPLMIKRSKKNSLALSLTADQMVSALLDAEPPILYSEYDPTRPFSEASMMGLLTNLADRELVHMINWAKRVPGFVDLTLHDQVHLLECAWLEILMIGLVWRSMEHPVKLLFAPNLLLDRNQGKCVEGMVEIFDMLLATSSRFRMMNLQGEEFVCLKSIILLNSGVYTFLSSTLKSLEEKDHIHRVLDKITDTLIHLMAKAGLTLQQQHQRLAQLLLILSHIRHMSNKGMEHLYSMKCKNVVPLYDLLLEAADAHRLHAPTSRGGASVEETDQSHLATAGSTSSHSLQKYYITGEAEGFPATA
B2: SB06142: ZF10-1_p65_ERT2 variant L354I/L391V/N413D/M421L/S463P/M517A/H524L (protein)
chain: B1 chain with L73I, L110V, N132D, M140L, S182P, M236A, H243L
B3: SB06136: ZF10-1_p65_ERT2 variant L384M/L391V/N413D/M421L/S463P/H524L (protein)
chain: B1 chain with L103M, L110V, N132D, M140L, S182P, H243L
B4: SB06145: ZF10-1_p65_ERT2 variant L409V/N413D/Q414E/M421L/S463P/H524L (protein)
chain: B1 chain with L128V, N132D, Q133E, M140L, S182P, H243L

Legend:
[1] = following a typical clinical dose of tamoxifen; cited from earlier work
U87MG:1066 cells = test: ERT2 mutant validation in U87MG with mCherry reporter; format: cell-based; conditions: validation screen versus wild-type ERT2
Method: About 16 hours before transduction 100k U87MG:1066 cells were seeded into 16 wells in 12 well plate format. During transduction, cells in each well were transduced with 100k pg of virus of ERT2 variant constructs. After transduction, cells were split in to 50k cells per well in a 24 well plate format, and treated with drug-free media or a range of endoxifen or 4-OHT drug conditions. About two days after treatment of cells with endoxifen or 4-OHT, cells were collected and mCherry reporter expression was quantified by flow cytometry.
Screening of the ERT2 mutant library identified a subset of ERT2 variants that were sensitive to endoxifen at 1 nM. Among this subset, 15 variants (Table 19) were validated in U87MG cells for their ability to activate an mCherry reporter (SB01066; FIG. 14B) at a range of concentrations of 0 pM, 10 pM, 50 pM, 100 pM, and 1 nM of endoxifen (FIG. 15A) and 4-OHT (FIG. 15B). Expression of mCherry was quantified about 24 hours after treatment with endoxifen or 4-OHT.
Select ERT2 variants (Table 20) from the previous screens were further tested for sensitivity to endoxifen and 4-OHT, compared to wild-type ERT2. […] Fold activation was calculated by gMFI mCherry levels of each test condition divided by gMFI mCherry levels of U87MG cells transduced with the reporter (SB01066).

NK cells = test: Validation of ERT2 mutants with mCherry reporter in NK cells; format: cell-based; conditions: primary NK cells, mCherry by flow cytometry
Method: After 10 days of feeder cell activation, NK cells were co-transduced with ERT2 mutant virus and reporter SB01066 virus (Experimental Set-up 1). On Day 2 after transduction, transduced NK cells were treated with endoxifen or 4-OHT at a range of concentrations of 0 nM, 0.01 nM, 0.1 nM, 1 nM, and 10 nM. On Day 4, cells were checked for mCherry expression by flow cytometry.

| Molecule | average peak plasma concentration [1] | 4-OHT concentration at which mCherry expression is activated (U87MG:1066 cells) | endoxifen concentration at which mCherry expression is activated (U87MG:1066 cells) | 4-OHT concentration at which variant was sensitive (NK cells) | endoxifen concentration at which variant was sensitive (NK cells) |
| --- | --- | --- | --- | --- | --- |
| CC/C(=C(\c1ccccc1)c1ccc(OCCN(C)C)cc1)c1ccccc1 [tamoxifen] | approximately 40 ng/mL |  |  |  |  |
| B1 |  | about 25 nM | about 25 nM |  |  |
| B2 |  |  |  | 0.1 nM | 0.1 nM |
| B3 |  |  |  | 0.1 nM | 0.1 nM |
| B4 |  |  |  | 0.1 nM | 0.1 nM |
